Data taken from US20190031759A1 (TECHNION RESEARCH AND DEVELOPMENT FOUNDATION, published 2019).

Target: recombinant single-chain HLA-A2-WT1Db126 complex (soluble, biotinylated scMHC-peptide complex) (human, site-specific biotinylation at the BirA recognition sequence at the carboxyl-terminus)
Experiment: SPR (ProteOn XPR36), soluble HLA-A2/WT1Db126 complexes on chip-immobilized Fabs coupled through an anti-human Fab

B1: F2 anti-HLA-A2/WT1Db126 TCR-like recombinant Fab antibody (Fab, V domains shown)
VH: QVQLVQSGGGLVKPGGSLRLSCAASGFTFSSYSMNWVRQAPGKGLEWVSSISSSSSYIYYADSVKGRFTISRDNAKNSLYLQMNSLRAEDTAVYYCARGDYYGLTFDPWGQGTLVTV
VL: LNFMLTQPHSVSESPGKTVTISCTRSSGSIASNYVQWYQQRPGSSPTTVIYEDNQRPSGVPDRFSGSIDSSSNSASLTISGLKTEDEADYYCQSYDSSNQNWVFGGGTKLTVLS
notes: Soluble human Fab from a naive phage Fab library, expressed in E. coli and purified on a TALON column; also called F2 Fab; F2 TCRL
- Kd: 400 nM

B2: F3 anti-HLA-A2/WT1Db126 TCR-like recombinant Fab antibody (Fab, V domains shown)
VH: EVQLVQSGAEVKKTGSSVKVSCKASGYTFTYRYLHWARQAPGQALEWMGWITPFNGNTNYAQKFQDRVTITRDRSMSTAYMELSSLRSEDTAMYYCASSAYDAFDIWGQGTMVTV
VL: LSSELTQDPAVSVALGQTVKITCQGDSLRIHYASWYQQKPGQAPVLVIYGKDNRPSGIPDRFSGSSSGTSASLTITGARAEDEADYYCNSRDNSGDHVLFGGGTKLTVV
notes: Soluble human Fab from a naive phage Fab library; also called F3 Fab; F3 TCRL
- Kd: 30 nM
